According to PMC5622040 (Nature Communications, 2017):

Target: the molecule itself
Assay: solid-state NMR of amyloid fibrils

B1: Syrian hamster PrP23-144 (domain or fragment)
chain: KKRPKPGGWNTGGSRYPGQGSPGGNRYPPQGGGTWGQPHGGGWGQPHGGGWGQPHGGGWGQPHGGGWGQGGGTHNQWNKPSKPKTNMKHMAGAAAAGAVVGGLGGYMLGSAMSRPMMHFGND
B1: binds.
